Test results taken from paper PMC3136212.

target: RPA (full-length heterotrimer RPA1/RPA2/RPA3) (human) (UniProt P27694+P15927+P35244); test: FP; set-up: unit not given here; conditions: 18-carbon spacer (sp18) at 5' end; FP: 0.060 uM FAM-oligo, 10-1500 mM NaCl, room temperature; CD: Buffer A 25 mM Tris pH 7.5, 2 mM MgCl2, 6% glycerol, 1 mM DTT, 100 (or 10) mM …
Sequence (P27694 whole entry, chain 1 of 3): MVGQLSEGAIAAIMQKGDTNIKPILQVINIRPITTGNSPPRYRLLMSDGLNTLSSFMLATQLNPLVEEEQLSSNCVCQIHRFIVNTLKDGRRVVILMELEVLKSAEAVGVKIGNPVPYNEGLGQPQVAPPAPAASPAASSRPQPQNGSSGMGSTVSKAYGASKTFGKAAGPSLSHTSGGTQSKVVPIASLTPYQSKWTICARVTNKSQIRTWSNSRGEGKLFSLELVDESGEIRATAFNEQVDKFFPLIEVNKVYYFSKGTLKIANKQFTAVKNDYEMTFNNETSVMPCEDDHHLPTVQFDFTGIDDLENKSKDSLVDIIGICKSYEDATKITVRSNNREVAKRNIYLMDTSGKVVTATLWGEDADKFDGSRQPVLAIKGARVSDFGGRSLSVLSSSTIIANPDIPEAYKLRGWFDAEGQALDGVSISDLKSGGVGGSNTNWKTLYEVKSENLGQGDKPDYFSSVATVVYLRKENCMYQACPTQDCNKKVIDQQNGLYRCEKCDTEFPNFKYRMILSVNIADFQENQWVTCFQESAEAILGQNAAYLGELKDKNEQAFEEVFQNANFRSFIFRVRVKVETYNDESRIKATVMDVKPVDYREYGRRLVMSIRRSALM
Sequence (P15927 whole entry, chain 2 of 3): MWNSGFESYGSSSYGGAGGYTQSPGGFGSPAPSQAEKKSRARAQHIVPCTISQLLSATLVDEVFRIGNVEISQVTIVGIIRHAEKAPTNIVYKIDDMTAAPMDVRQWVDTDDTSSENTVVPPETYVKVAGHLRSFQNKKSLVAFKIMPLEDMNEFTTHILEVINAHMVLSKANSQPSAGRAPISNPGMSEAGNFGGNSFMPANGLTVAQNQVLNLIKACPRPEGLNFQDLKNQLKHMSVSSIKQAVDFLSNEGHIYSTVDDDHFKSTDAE
Sequence (P35244 whole entry, chain 3 of 3): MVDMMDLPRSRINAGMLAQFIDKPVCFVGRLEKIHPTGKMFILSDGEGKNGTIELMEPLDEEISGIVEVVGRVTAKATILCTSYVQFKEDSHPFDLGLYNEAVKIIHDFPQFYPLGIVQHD

Sequence | Kd
AAAAAAAAAAAAAAAAAAAAAAA [polyA] | 0.07
ATCCCCTTCCCAACCTCACCCAA [Anti (Comp)] | 0.07
TAGGGGAAGGGTTGGAGTGGGTT [Gq23 (FP)] | 0.05
